Where two headings read alike, the source gives them in different places.

The target of assay [1] is native SARS-CoV 3CLpro (3C-like protease, nsp5) with an n-terminal methionine (SARS-CoV (Urbani strain)) (UniProt P0C6X7). The assay is described as follows: enzyme activity against enzyme concentration.
The target is the same in assay [2]. In words: enzyme activity against enzyme concentration. The source holds these as a separate data set.

For the substance “native SARS-CoV 3CLpro (3C-like protease, nsp5) with an n-terminal methionine (from UniProt P0C6X7 3241-3544) (enzyme)”, the Kd is 250 to 1000 nM in assay [1] and 230 nM in assay [2].

The Kd is the constant that tells how readily two partners part at equilibrium. A higher Kd goes with a looser complex.
